In patent US20040028607:

B1: recombinant human SIRT2 (6xHis-tagged, with factor Xa cleavage site, purified from E. coli) (protein)
chain: MAEPDPSHPLETQAGKVQEAQDSDSDSEGGAAGGEADMDFLRNLFSQTLSLGSQKERLLDELTLEGVARYMQSERCRRVICLVGAGISTSAGIPDFRSPSTGLYDNLEKYHLPYPEAIFEISYFKKHPEPFFALAKELYPGQFKPTICHYFMRLLKDKGLLLRCYTQNIDTLERIAGLEQEDLVEAHGTFYTSHCVSASCRHEYPLSWMKEKIFSEVTPKCEDCQSLVKPDIVFFGESLPARFFSCMQSDFLKVDLLLVMGTSLQVQPFASLISKAPLSTPRLLINKEKAGQSDPFLGMIMGLGGGMDFDSKKAYRDVAWLGECDQGCLALAELLGWKKELEDLVRREHASIDAQSGAGVPNPSTSASPKKSPPPAKDEARTTEREKPQ
B2: recombinant yeast Hst2p (protein)
chain: MSVSTASTEMSVRKIAAHMKSNPNAKVIFMVGAGISTSCGIPDFRSPGTGLYHNLARLKLPYPEAVFDVDFFQSDPLPFYTLAKELYPGNFRPSKFHYLLKLFQDKDVLKRVYTQNIDTLERQAGVKDDLIIEAHGSFAHCHCIGCGKVYPPQVFKSKLAEHPIKDFVKCDVCGELVKPAIVFFGEDLPDSFSETWLNDSEWLREKITTSGKHPQQPLVIVVGTSLAVYPFASLPEEIPRKVKRVLCNLETVGDFKANKRPTDLIVHQYSDEFAEQLVEELGWQEDFEKILTAQGGMGDNSKEQLLEIVHDLENLSLDQSEHESADKKDKKLQRLNGHDSDEDGASNSSSSQKAAKE

What was measured:
[1] = target: monoacetylated histone H3 peptide …(AcK)APRKQL, acetylated on lysine-14
[2] = target: T1, 9-amino acid synthetic alpha-tubulin peptide MPSD(AcK)TIGG, acetylated on lysine-40
T1 chain: MPSDXTIGG

[3] = target: PCAF-acetylated calf thymus core histones

Protein	kcat (printed 'km values'), deacetylation of acetylated H3 peptide [1]	V/K, deacetylation of tubulin peptide, HPLC [2] [M⁻¹ s⁻¹]	fold preference for tubulin peptide relative to Hst2p (kcat and V/K) [2]	kcat (printed 'kea'), deacetylation of tubulin peptide, HPLC [2] [s⁻¹]	fold preference for H3 peptide relative to SIRT2 (V/K and Km) [1]	apparent V/K for deacetylation of core histones, fold over SIRT2 [3]
B1	The km values (˜0.2 s^-1) were similar between the two enzymes	894 ± 100	This difference was 60-fold	0.144 ± 0.005	–	–
B2	The km values (˜0.2 s^-1) were similar between the two enzymes	14.9	–	0.00254 ± 0.0003	˜200-fold stronger preference for H3 peptide relative to SIRT2	Hst2p exhibited a 7-fold higher V/K value than SIRT2
